Source: paper PMC4049228 (Science (New York, N.Y.), 2014)

Molecular target: T1, Ricinus communis ATXR5 (RcATXR5 a.a. 158–374; nSET and SET domain) (Ricinus communis, UniProt B9RU15 158-374)
T1 sequence: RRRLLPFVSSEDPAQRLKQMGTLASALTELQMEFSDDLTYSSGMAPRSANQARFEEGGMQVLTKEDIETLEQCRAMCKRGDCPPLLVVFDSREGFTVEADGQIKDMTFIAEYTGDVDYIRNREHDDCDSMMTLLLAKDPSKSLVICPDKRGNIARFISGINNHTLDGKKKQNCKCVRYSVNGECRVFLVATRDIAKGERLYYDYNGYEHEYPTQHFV
Assay: crystal structure

KQLATKAARKSAPATGGVK [histone H3.1 peptide (a.a. 18–36)]
binding result: binds
